# Source: patent US20260167679A1, “FUSION PROTEIN TARGETING MITOCHONDRIA, METHOD OF MAKING AND USE THEREOF” (UNIVERSITY OF ROCHESTER, priority 2020, published 2026)
# B1: mtON: fusion of the 187 N-terminal amino acids of mouse IMMT1 to the light-activated proton pump (Mac) from Leptosphaeria maculans (protein)
# chain: MLRACQLSGVTVAAQSCLCGKFVLRPLRPCRRYSTSSSSGLTAGKIAGAGLLFVGGGIGGTILYAKWDSHFRESVEKTIPYSDKLFGMVLGSAPYTVPLPKKPVQSGPLKISSVSEVMKDSKLPVAQSQKTKGDTPASAASTGAAQIISAAGDTLSVPAPAVQHEDTIKTECPNTNEGKSTSETTEEPAGLIVDQFEEVLMKTSQLFPLPTATQSAQPTHVAPVPTVLPDTPIYETVGDSGSKTLWVVFVLMLIASAAFTALSWKIPVNRRLYHVITTIITLTAALSYFAMATGHGVALNKIVIRTQHDHVPDTYETVYRQVYYARYIDWAITTPLLLLDLGLLAGMSGAHIFMAIVADLIMVLTGLFAAFGSEGTPQKWGWYTIACIAYIFVVWHLVLNGGANARVKGEKLRSFFVAIGAYTLILWTAYPIVWGLADGARKIGVDGEIIAYAVLDVLAKGVFGAWLLVTHANLRESDVELNGFWANGLNREGAIRIGEDDGAR
# modifications: Synthetic Complete mtON fusion protein sequence
# Experiments:
# [1] = system: CD8+ T cells; experiment: CD8+ T cell migration on ICAM-1+CXCL12; assay type: cell-based, mouse
# Experimental: The velocity (A), displacement (B), track length (C), meandering index (D), and percent migrating cells (E) of Mock (or GFP) and mtOn expressing Day 4 CD8+ T cells migrating on ICAM-1+CXCL12. The percentage of migrating cells was calculated as the number of cells migrating 5-20 μm/min divided by the total number of cells in the field of view during the 20-minute movie. All movies received 500 nm illumination and were analyzed with Volocity software. All data shown as mean±SEM and analyzed by a two-tailed unpaired t-test with Welch's correction (A-D: includes four independent experiments, Mock: 271 cells, mtOn: 312 cells; E: n=4 movies on the same day). ns, not significant.
# After confirming mtON is expressed correctly, there followed additional functional experiments, specifically looking at cell migration in CD8+ T cells expressing mtON (PA-OxPhos). The migration conditions were the same as in previously described experiments, except we now used the Texas Red filter (˜500 nm) on an epifluorescent microscope to activate mtON while CD8+ T cells are migrating on ICAM-1+CXCL12. CD8+ T cells were sorted based on GFP expression and the mock negative control cells were GFP negative. Both mock and mtON expressing CD8+ T cells were treated identically.
# [2] = system: AMPK; experiment: Immunoblot of phosphorylated AMPK; assay type: in vivo, Caenorhabditis elegans; settings: animals removed from food, mtON activation
# Experimental: Synchronized young adult animals were exposed to 1 Hz light (Quantum LED, 0.02 mW/mm2) for 4 h, and immediately harvested with ice-cold M9 media and centrifuged at 1,000×g for 1 min. Animals were ground by plastic pestle disruption in lysis buffer (20 mM Tris-HCl, 100 mM NaCl, 1 mM EDTA, 1 mM DTT, 10% glycerol, 0.1% SDS, pH 7.6, 1×Halt™ protease inhibitor cocktail, Thermo78429) and diluted 1:1 in sample loading buffer (100 mM Tris-HCl, 10% v/v glycerol, 10% SDS, 0.2% w/v bromophenol blue, 2% v/v b-mercaptoethanol). These samples were heated at 95° C. for 5 min. Isolated mitochondrial samples were prepared as described above and diluted 1:1 in sample loading buffer with 1% SDS. […] samples were loaded to 7.5% polyacrylamide gels and separated by SDS-PAGE. Proteins were transferred to nitrocellulose membranes and blocked in 5% non-fat milk/TBST (50 mM Tris, 150 mM NaCl, 0.05% Tween 20, pH 8.0) for 1 h at room temperature. Membranes were incubated at 4° C. in primary antibodies diluted 1:1,000 in 5% bovine serum albumin:anti-GFP (ClonTech Living Colours #ab632375), anti-ATP5a (Abcam, #ab14748), 1:60 anti-HSP60 (Department of Biology, Iowa City, IA 52242; Developmental Studies Hybridoma Bank, University of Iowa Department of Biology, Iowa City, IA 52242), […], anti-Actin (Abcam #ab14128), and 1:10,000 antiphospho-AMPKa Rabbit (Cell Signaling, #2535). […]
# [3] = system: Drosophila melanogaster; experiment: Drosophila lifespan; assay type: in vivo; settings: activation of mtON (ATR, white light)
# Text: (C) White light increases the lifespan of mtON+ATR (red) Drosophila compared to vehicle (ethanol, blue) Drosophila.
# [4] = system: C. elegans; experiment: Mitochondrial mass and unfolded protein response (staining, quantitative proteomics); assay type: in vivo, Caenorhabditis elegans
# Experimental: Scale bar is 10 μm. Experiment was performed 3 times with similar results. […] Scale bar is 10 μm. Experiment was performed 3 times with similar results. C) Relative pharynx TMRE fluorescence in mtON (ex. array) animals stained at day 4 of adulthood under the indicated conditions. One-way ANOVA with Tukey's test, *p=0.0001, n=33, 34, 26, 35 animals for each bar from left to right. D) Relative pharynx MitoTracker fluorescence in animals stained at day 4 of adulthood.
# Genes encoding proteins are as follows. Complex I: nuo-1, nuo-5. complex II: sdha-1, mev-1, sdhb-1. Complex III: isp-1. Complex IV: cox-5a. ATP synthase: R04F11.2, atp-5. Translocase of the outer membrane (TOM70): tomm-70. VDAC: vdac-1. Uniprot C. elegans proteome database protein codes are presented above each plot. B) Proteins that mediate the mitochondrial unfolded protein response are not affected by mtON activation, two-tailed unpaired t test, −ATR n=5, +ATR n=4 biological replicates. Genes encoding proteins are hsp-6 and hsp-60.
# [5] = system: C. elegans; experiment: Hypoxia and reoxygenation with hypoxic preconditioning; assay type: in vivo, Caenorhabditis elegans; settings: mtON activation during the short hypoxia (PC)
# Experimental: Experiments were carried out using a hypoxic chamber (Coy Laboratory Products, 5%/95% H2/N2 gas, palladium catalyst) at 26° C. with 50-100 animals per plate. O2 was <0.01%. Hypoxic preconditioning (PC) duration was 4 h, and control animals were incubated at 26° C. in room air for the same time. 1 Hz illumination (Quantum LED, 0.02 mW/mm^2) was carried out during PC period or during the hypoxic period. Hypoxic exposure was for 18.5, 21 h after PC. Twenty-four hours after hypoxia exposure, animals that were moving or those that moved in response to a light touch to the head were scored as alive. Data from days where PC was at least 15% effective for both +ATR and −ATR were used. Animals supplemented with ATR were allowed to lay eggs onto plates with no ATR that were subsequently used for HR experiments to minimize confounding effects of ATR. ATR from the parent animal was sufficient to provide active mtON in progeny as tested by the azide toxin assay described above. […] FCCP dissolved in ethanol was deposited onto seeded NGM plates.
# [6] = system: C. elegans; experiment: Healthspan: mobility on solid media and in liquid with age; assay type: in vivo, Caenorhabditis elegans
# Text: Light treatment began at day 1 of adulthood for all experiments, a, Survival curves of mtON-expressing animals (extrachromosomal array). […] One-way ANOVA with Tukey's test; n=30 animals for day 4 conditions and 40 animals for day 10. […] One-way ANOVA with Tukey's test, day 10 no ATR light versus day 10 ATR light; P=0.002, all other significant comparisons, P=0.0001; n=32, 32, 40 and 40 animals for each violin from left to right. Data are median±quartiles. f, Model showing effects of mtON activation in vivo. The dotted arrow represents the molecular mechanisms to be investigated that link Δψm to aged physiology.
molecule,measurement,setting,value
B1,overall percentage of migrating CD8+ T cells,[1]; vs cells expressing GFP,large increase
same,cell displacement,"[1]; ~500 nm illumination, vs mock",increase
same,cell velocity,"[1]; ~500 nm illumination, vs mock",increase
same,meandering index,"[1]; ~500 nm illumination, vs mock",increase
same,AMPK phosphorylation,[2],prevented this phosphorylation
same,lifespan,[3],extends Drosophila lifespan
same,targets of the mitochondrial unfolded protein response,[4]; after mtON activation,did not change
same,mitochondrial mass,[4]; mitochondrial staining and quantitative proteomics,did not impact mitochondrial mass
same,protection conferred by hypoxic preconditioning,[5],suppressed
same,locomotion on solid media,"[6]; day 4 and day 10, mtON activation",did not affect locomotion
same,mobility in liquid with age,"[6]; day 10, mtON activation",improved mobility
